Like-named read-outs stand apart in the source and are kept apart here.
With “GCH1 (GTP cyclohydrolase I): S81D phosphomimetic” the other (phosphorylation at S81) was “increases”.
With “LDHA (lactate dehydrogenase A): C163A/C293A (2C-A)” the localisation_or_trafficking (other: S-nitrosylation at C163) was “decreases” and the localisation_or_trafficking (other: S-nitrosylation at C293) was “decreases”.
For LDHA (lactate dehydrogenase A): C163A, the enzymatic_activity (other: S-nitrosylation at C163) was “decreases”.
For LDHA (lactate dehydrogenase A): C293A, the enzymatic_activity (other: S-nitrosylation at C293) was “decreases”.

From PMC11148139
